From publication PMC11406361, “Several orphan solute carriers functionally identified as organic cation transporters: Substrates specificity compared with known cation transporters” (The Journal of Biological Chemistry, 2024)

Columns and labels:
Assay in all cases: cells, lysate or membranes
[1] = substrate: C[N+](C)(C)CCO; conditions: pH 7.4
[2] = substrate: COC(=O)[C@H]1[C@@H](OC(=O)c2ccccc2)C[C@@H]2CC[C@H]1N2C; conditions: pH 7.4
[3] = substrate: c1cnc2cc3c(cc2n1)[C@@H]1CNC[C@H]3C1; conditions: other: SLC35E2A, HEK293, net uptake over empty vector cells; pH 7.4
[4] = substrate: COc1ccc2c3c1O[C@H]1C(=O)CC[C@@]4(O)[C@@H](C2)N(C)CC[C@]314; conditions: pH 7.4
[5] = substrate: CNC(C)Cc1ccc2c(c1)OCO2; conditions: other: SLC35G3, HEK293, net uptake over empty vector cells; pH 7.4
[6] = substrate: CCCNC(C)C(=O)Nc1c(C)csc1C(=O)OC; conditions: other: SLC35G3, HEK293, net uptake over empty vector cells; pH 7.4
[7] = substrate: CCCN1CCCC[C@H]1C(=O)Nc1c(C)cccc1C; conditions: other: SLC35G3, HEK293, net uptake over empty vector cells; pH 7.4
[8] = substrate: Clc1cccc(Cl)c1N=C1NCCN1; conditions: other: SLC35G3, HEK293, net uptake over empty vector cells; pH 7.4
[9] = substrate: CCOC(=O)C1(c2ccccc2)CCN(C)CC1; conditions: other: SLC35G3, HEK293, net uptake over empty vector cells; pH 7.4
[10] = other: SLC35F3, HEK293, net uptake over empty vector cells
[11] = other: SLC35F2, HEK293, net uptake over empty vector cells
[12] = other: SLC35E4, HEK293, net uptake over empty vector cells
[13] = other: SLC35G4, HEK293, net uptake over empty vector cells
[14] = other: SLC35F5, HEK293, net uptake over empty vector cells
[15] = other: SLC35F4, HEK293, net uptake over empty vector cells
[16] = other: SLC44A1, HEK293, net uptake over empty vector cells

B1: SLC35F3 (Homo sapiens) (protein)
chain: MKKHSARVAPLSACNSPVLTLTKVEGEERPRDSPGPAEAQAPAGVEAGGRASRRCWTCSRAQLKKIFWGVAVVLCVCSSWAGSTQLAKLTFRKFDAPFTLTWFATNWNFLFFPLYYVGHVCKSTEKQSVKQRYRECCRFFGDNGLTLKVFFTKAAPFGVLWTLTNYLYLHAIKKINTTDVSVLFCCNKAFVFLLSWIVLRDRFMGVRIVAAILAIAGIVMMTYADGFHSHSVIGIALVVASASMSALYKVLFKLLLGSAKFGEAALFLSILGVFNILFITCIPIILYFTKVEYWSSFDDIPWGNLCGFSVLLLTFNIVLNFGIAVTYPTLMSLGIVLSIPVNAVIDHYTSQIVFNGVRVIAIIIIGLGFLLLLLPEEWDVWLIKLLTRLKVRKKEEPAEGAADLSSGPQSKNRRARPSFAR
[1]; [10]
  Km: 112 (±96.4) μM
  Vmax: 0.000135 µmol/min/mg
  Vmax/Km: 1.21 µL/min/mg

B2: SLC35F2 (Homo sapiens) (protein)
chain: MEADSPAGPGAPEPLAEGAAAEFSSLLRRIKGKLFTWNILKTIALGQMLSLCICGTAITSQYLAERYKVNTPMLQSFINYCLLFLIYTVMLAFRSGSDNLLVILKRKWWKYILLGLADVEANYVIVRAYQYTTLTSVQLLDCFGIPVLMALSWFILHARYRVIHFIAVAVCLLGVGTMVGADILAGREDNSGSDVLIGDILVLLGASLYAISNVCEEYIVKKLSRQEFLGMVGLFGTIISGIQLLIVEYKDIASIHWDWKIALLFVAFALCMFCLYSFMPLVIKVTSATSVNLGILTADLYSLFVGLFLFGYKFSGLYILSFTVIMVGFILYCSTPTRTAEPAESSVPPVTSIGIDNLGLKLEENLQETHSAVL
[2]
  Km: 161 (±99.5) μM
  Vmax: 0.000415 µmol/min/mg
  Vmax/Km: 2.58 µL/min/mg
[1]; [11]
  Km: 32.6 (±14.9) μM
  Vmax: 8.1e-05 µmol/min/mg
  Vmax/Km: 2.48 µL/min/mg

B3: SLC35E4 (Homo sapiens) (protein)
chain: MCRCPPEHHDGRMTSAEVGAAAGGAQAAGPPEWPPGSPQALRQPGRARVAMAALVWLLAGASMSSLNKWIFTVHGFGRPLLLSALHMLVAALACHRGARRPMPGGTRCRVLLLSLTFGTSMACGNVGLRAVPLDLAQLVTTTTPLFTLALSALLLGRRHHPLQLAAMGPLCLGAACSLAGEFRTPPTGCGFLLAATCLRGLKSVQQSALLQEERLDAVTLLYATSLPSFCLLAGAALVLEAGVAPPPTAGDSRLWACILLSCLLSVLYNLASFSLLALTSALTVHVLGNLTVVGNLILSRLLFGSRLSALSYVGIALTLSGMFLYHNCEFVASWAARRGLWRRDQPSKGL
[1]; [12]
  Km: 245 (±331) μM
  Vmax: 4.19e-05 µmol/min/mg
  Vmax/Km: 0.17 µL/min/mg

B4: SLC35E2A (Homo sapiens) (protein)
chain: MSSSVKTPALEELVPGSEEKPKGRSPLSWGSLFGHRSEKIVFAKSDGGTDENVLTVTITETTVIESDLGVWSSRALLYLTLWFFFSFCTLFLNKYILSLLGGEPSMLGAVQMLSTTVIGCVKTLVPCCLYQHKARLSYPPNFLMTMLFVGLMRFATVVLGLVSLKNVAVSFAETVKSSAPIFTVIMSRMILGEYTGRPSDREEREELQLQPGRGAAASDRRSPVPPSERHGVRPHGENLPGDFQVPQALHRVALSMALPCPMLPAS
[2]
  Km: 165 (±47.7) μM
  Vmax: 0.000683 µmol/min/mg
  Vmax/Km: 4.14 µL/min/mg
[3]
  Km: 474 (±190) μM
  Vmax: 0.000847 µmol/min/mg
  Vmax/Km: 1.79 µL/min/mg
[4]
  Km: 92.0 (±31.0) μM
  Vmax: 0.000317 µmol/min/mg
  Vmax/Km: 3.44 µL/min/mg

B5: SLC35G4 (Homo sapiens) (protein)
chain: MAGSHPYFNLPDSTHPSPPSTPPSLHWHQRCQPSDATNGLLVALLGGGLPAGFVGPLSRMAYQASNLPSLELVICRCLFHLPIALLLKLRGDPLLGPPDIRGRTCFCALLNVLNIGCAYSAVQVVPTGNAATVRKHSSTVCSAILTLCLESQVLSGYDWCGLLGSILGLIIIVGPGLWTLQEGTTGVYTGLGYVQAFLGGLALSLGLLVYRSLHFPSCLPTVAFLSGLVGLLGSVPGLFVLQSPVLPSDLLSWSCVGAVGILTLVSFTCVGYAVTKAHPALVCAVLHSEVVMALILQYFMLHETVAPSDIMGAGVVLGSIAIITARNLICERTGKVEE
[1]; [13]
  Km: 13.2 (±7.02) μM
  Vmax: 0.000108 µmol/min/mg
  Vmax/Km: 8.15 µL/min/mg

B6: SLC35F5 (Homo sapiens) (protein)
chain: MVPPRRHRGAGRPGVLSSSPPFRLRSAKFSGIALEDLRRALKTRLQMVCVFVMNRMNSQNSGFTQRRRMALGIVILLLVDVIWVASSELTSYVFTQYNKPFFSTFAKTSMFVLYLLGFIIWKPWRQQCTRGLRGKHAAFFADAEGYFAACTTDTTMNSSLSEPLYVPVKFHDLPSEKPESTNIDTEKTPKKSRVRFSNIMEIRQLPSSHALEAKLSRMSYPVKEQESILKTVGKLTATQVAKISFFFCFVWFLANLSYQEALSDTQVAIVNILSSTSGLFTLILAAVFPSNSGDRFTLSKLLAVILSIGGVVLVNLAGSEKPAGRDTVGSIWSLAGAMLYAVYIVMIKRKVDREDKLDIPMFFGFVGLFNLLLLWPGFFLLHYTGFEDFEFPNKVVLMCIIINGLIGTVLSEFLWLWGCFLTSSLIGTLALSLTIPLSIIADMCMQKVQFSWLFFAGAIPVFFSFFIVTLLCHYNNWDPVMVGIRRIFAFICRKHRIQRVPEDSEQCESLISMHSVSQEDGAS
[1]; [14]
  Km: 5.83 (±3.23) μM
  Vmax: 3.48e-05 µmol/min/mg
  Vmax/Km: 5.97 µL/min/mg

B7: SLC35G3 (Homo sapiens) (protein)
chain: MAGSHPYFNQPDSTHPSPPSAPPSLRWYQRCQPSDATSGLLVALLGGGLPAGFVGPLSRMAYQASNLPSLELLIWRCLFHLPIALLLKLRGDPLLGTPDIRSRAFFCALLNILSIGCAYSAVQVVPAGNAATVRKGSSTVCSAVLTLCLESQGLSGYDWCGLLGCILGLIIIVGPGLWTLQEGTTGVYTALGYVEAFLGGLALSLRLLVYRSLHFPPCLPTVAFLSGLVGLLGSVPGLFVLQAPVLPSDLLSWSCVGAVGILALVSFTCVGYAVTKAHPALVCAVLHSEVVVALILQYYMLHETVAPSDIVAAGVVLGSIAIITAQNLSCERTGRVEE
[5]
  Km: 141 (±50.4) μM
  Vmax: 0.000606 µmol/min/mg
  Vmax/Km: 4.31 µL/min/mg
[6]
  Km: 143 (±119) μM
  Vmax: 0.000291 µmol/min/mg
  Vmax/Km: 2.04 µL/min/mg
[7]
  Km: 151 (±60.7) μM
  Vmax: 0.000551 µmol/min/mg
  Vmax/Km: 3.64 µL/min/mg
[8]
  Km: 48.2 (±23.9) μM
  Vmax: 0.000234 µmol/min/mg
  Vmax/Km: 4.85 µL/min/mg
[2]
  Km: 466 (±117) μM
  Vmax: 0.000739 µmol/min/mg
  Vmax/Km: 1.59 µL/min/mg
[9]
  Km: 57.7 (±44.9) μM
  Vmax: 0.000265 µmol/min/mg
  Vmax/Km: 4.6 µL/min/mg

B8: SLC35F4 (Homo sapiens) (protein)
chain: MDELLLDLFHKLTSGRQLAAGNGLCGISHKEQEVWKPGHNILVKMRKEDKSLVWLIHSTLARYTQVTNFLGTSRSSVTRCKPGANCPSSHSGISRQLSPLSVTEDSSAPILELQNQGSSGVCGHRVERQNRSADDGTQTHSENSSQENRIKARCLSCTSMVLKGIWGLLIILSVSSSWVGTTQIVKITYKNFYCPFFMTWFSTNWNIMFFPVYYSGHLATAQEKQSPMKKFRECSRIFGEDGLTLKLFLKRTAPFSILWTLTNYLYLLALKKLTATDVSALFCCNKAFVFLLSWIVLKDRFMGVRIVAAIMAITGIVMMAYADNFHADSIIGVAFAVGSASTSALYKVLFKMFLGSANFGEAAHFVSTLGFFNLIFISFTPVILYFTKVEHWSSFAALPWGCLCGMAGLWLAFNILVNVGVVLTYPILISIGTVLSVPGNAAVDLLKQEVIFNVVRLAATIIICIGFLLMLLPEEWDEITLRFINSLKEKKSEEHVDDVTDPSIHLRGRGRANGTVSIPLA
[1]; [15]
  Km: 47.4 (±48.1) μM
  Vmax: 6.28e-05 µmol/min/mg
  Vmax/Km: 1.32 µL/min/mg

B9: SLC44A1 (Homo sapiens) (protein)
chain: MGCCSSASSAAQSSKREWKPLEDRSCTDIPWLLLFILFCIGMGFICGFSIATGAAARLVSGYDSYGNICGQKNTKLEAIPNSGMDHTQRKYVFFLDPCNLDLINRKIKSVALCVAACPRQELKTLSDVQKFAEINGSALCSYNLKPSEYTTSPKSSVLCPKLPVPASAPIPFFHRCAPVNISCYAKFAEALITFVSDNSVLHRLISGVMTSKEIILGLCLLSLVLSMILMVIIRYISRVLVWILTILVILGSLGGTGVLWWLYAKQRRSPKETVTPEQLQIAEDNLRALLIYAISATVFTVILFLIMLVMRKRVALTIALFHVAGKVFIHLPLLVFQPFWTFFALVLFWVYWIMTLLFLGTTGSPVQNEQGFVEFKISGPLQYMWWYHVVGLIWISEFILACQQMTVAGAVVTYYFTRDKRNLPFTPILASVNRLIRYHLGTVAKGSFIITLVKIPRMILMYIHSQLKGKENACARCVLKSCICCLWCLEKCLNYLNQNAYTATAINSTNFCTSAKDAFVILVENALRVATINTVGDFMLFLGKVLIVCSTGLAGIMLLNYQQDYTVWVLPLIIVCLFAFLVAHCFLSIYEMVVDVLFLCFAIDTKYNDGSPGREFYMDKVLMEFVENSRKAMKEAGKGGVADSRELKPMASGASSA
[1]; [16]
  Km: 28.9 (±18.5) μM
  Vmax: 6.01e-05 µmol/min/mg
  Vmax/Km: 2.08 µL/min/mg
